B1: Azoarcus group I ribozyme (parent)
chain: GUGCCUUGCGCCGGGAAACCACGCAAGGGAUGGUGUCAAAUUCGGCGAAACCUAAGCGCCCGCCCGGGCGUAUGGCAACGCCGAGCCAAGCUUCGGCGCCUGCGCCGAUGAAGGUGUAGAGACUAGACGGCACCCACCUAAGGCAAACGCUAUGGUGAAGGCAUAGUCCAGGGAGUGGCGAAAGUCACACAAACCGG

In the data set the parent is B1. Description: reverse-splicing fitness (ratio to wild type); higher = more active; in vitro selection; Mg2+ level not given. The procedure, abridged:
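An in vitro group I ribozyme library with randomized positions was T7-transcribed and gel-purified. In triplicate, 10 pmol RNA in EPPS pH 7.5 was reacted with 50 pmoles of a 30-nt RNA substrate for 1 h at 37 °C across several added MgCl2 levels (1–48 mM), then stopped with EDTA. Products were reverse transcribed from a substrate-complementary primer, PCR-amplified and sequenced (HiSeq 4000). Fitness is a variant's read proportion after selection over that before, normalised to wild type.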
For GUGCCUUGCGCCGGGAAACCACGCAAGGGAUGGUGUCAAAUUCGGCGAAACCUAAGCGCCCGCCCGGGCGUAUGGCAACGCUGAGCCAAGCUUCGGCGCCUGCGCCGAUGGAGGUGUAGCGACUAGACGGCACCCACCUAAGGCGAACGCUAUGGUGAAGGCAUAGUCUAGGGAGUGGCGAAAGUCACACAAACCGG [C82U A111G A120C A145G C169U], the reverse-splicing fitness was 0.0129.

As for GUGCCUUGCGCCGGGAAACCACGCAAGGGAUGGUGUCAAAUUCGGCGAAACCUAAGCGCCCGCCCGGGCGUAUGGCAACGCUGAGCCAAGCUUCGGCGCCUGCGCCGAUGGAGGUGUAGCGACUAGACGGCACCCACCUAAGGCGAACGCUAUGGUGAAGGCAUAGUCGAGGGAGUGGCGAAAGUCACACAAACCGG [C82U A111G A120C A145G C169G], the reverse-splicing fitness stood at 0.00801.

Take GUGCCUUGCGCCGGGAAACCACGCAAGGGAUGGUGUCAAAUUCGGCGAAACCUAAGCGCCCGCCCGGGCGUAUGGCAACGCUGAGCCAAGCUUCGGCGCCUGCGCCGAUGGAGGUGUAGCGACUAGACGGCACCCACCUAAGGCGAACGCUAUGGUGAAGGCAUAGUCAAGGGAGUGGCGAAAGUCACACAAACCGG [C82U A111G A120C A145G C169A]: the reverse-splicing fitness is 0.00713.

In the case of GUGCCUUGCGCCGGGAAACCACGCAAGGGAUGGUGUCAAAUUCGGCGAAACCUAAGCGCCCGCCCGGGCGUAUGGCAACGCUGAGCCAAGCUUCGGCGCCUGCGCCGAUGGAGGUGUAGCGACUAGACGGCACCCACCUAAGGCGAACGGUAUGGUGAAGGCAUAGUCUAGGGAGGGGCGAAAGUCACACAAACCGG [C82U A111G A120C A145G C150G C169U U176G], the reverse-splicing fitness amounted to 0.0053.

GUGCCUUGCGCCGGGAAACCACGCAAGGGAUGGUGUCAAAUUCGGCGAAACCUAAGCGCCCGCCCGGGCGUAUGGCAACGCUGAGCCAAGCUUCGGCGCCUGCGCCGAUGGAGGUGUAGCGACUAGACGGCACCCACCUAAGGCGAACGCUAUGGUGAAGGCAUAGUCUAGGGAGAGGCGAAAGUCACACAAACCGG [C82U A111G A120C A145G C169U U176A]: the reverse-splicing fitness worked out at 0.0141.

As to GUGCCUUGCGCCGGGAAACCACGCAAGGGAUGGUGUCAAAUUCGGCGAAACCUAAGCGCCCGCCCGGGCGUAUGGCAACGCUGAGCCAAGCUUCGGCGCCUGCGCCGAUGGAGGUGUAGCGACUAGACGGCACCCACCUAAGGCGAACGUUAUGGUGAAGGCAUAGUCGAGGGAGGGGCGAAAGUCACACAAACCGG [C82U A111G A120C A145G C150U C169G U176G], the reverse-splicing fitness came to 0.00507.

In the case of GUGCCUUGCGCCGGGAAACCACGCAAGGGAUGGUGUCAAAUUCGGCGAAACCUAAGCGCCCGCCCGGGCGUAUGGCAACGCUGAGCCAAGCUUCGGCGCCUGCGCCGAUGGAGGUGUAGCGACUAGACGGCACCCACCUAAGGCGAACGUUAUGGUGAAGGCAUAGUCGAGGGAGCGGCGAAAGUCACACAAACCGG [C82U A111G A120C A145G C150U C169G U176C], the reverse-splicing fitness amounted to 0.0188.

As to GUGCCUUGCGCCGGGAAACCACGCAAGGGAUGGUGUCAAAUUCGGCGAAACCUAAGCGCCCGCCCGGGCGUAUGGCAACGCUGAGCCAAGCUUCGGCGCCUGCGCCGAUGGAGGUGUAGCGACUAGACGGCACCCACCUAAGGCGAACGUUAUGGUGAAGGCAUAGUCGAGGGAGAGGCGAAAGUCACACAAACCGG [C82U A111G A120C A145G C150U C169G U176A], the reverse-splicing fitness was determined as 0.0191.

For the variant GUGCCUUGCGCCGGGAAACCACGCAAGGGAUGGUGUCAAAUUCGGCGAAACCUAAGCGCCCGCCCGGGCGUAUGGCAACGCUGAGCCAAGCUUCGGCGCCUGCGCCGAUGGAGGUGUAGCGACUAGACGGCACCCACCUAAGGCGAACGUUAUGGUGAAGGCAUAGUCCAGGGAGUGGCGAAAGUCACACAAACCGG [C82U A111G A120C A145G C150U], the reverse-splicing fitness was 0.042.

In the case of GUGCCUUGCGCCGGGAAACCACGCAAGGGAUGGUGUCAAAUUCGGCGAAACCUAAGCGCCCGCCCGGGCGUAUGGCAACGCUGAGCCAAGCUUCGGCGCCUGCGCCGAUGGAGGUGUAGCGACUAGACGGCACCCACCUAAGGCGAACGUUAUGGUGAAGGCAUAGUCGAGGGAGUGGCGAAAGUCACACAAACCGG [C82U A111G A120C A145G C150U C169G], the reverse-splicing fitness was found to be 0.0102.

As for GUGCCUUGCGCCGGGAAACCACGCAAGGGAUGGUGUCAAAUUCGGCGAAACCUAAGCGCCCGCCCGGGCGUAUGGCAACGCUGAGCCAAGCUUCGGCGCCUGCGCCGAUGGAGGUGUAGCGACUAGACGGCACCCACCUAAGGCGAACGUUAUGGUGAAGGCAUAGUCUAGGGAGUGGCGAAAGUCACACAAACCGG [C82U A111G A120C A145G C150U C169U], the reverse-splicing fitness came out at 0.0127.

In the case of GUGCCUUGCGCCGGGAAACCACGCAAGGGAUGGUGUCAAAUUCGGCGAAACCUAAGCGCCCGCCCGGGCGUAUGGCAACGCUGAGCCAAGCUUCGGCGCCUGCGCCGAUGGAGGUGUAGCGACUAGACGGCACCCACCUAAGGCGAACGUUAUGGUGAAGGCAUAGUCAAGGGAGUGGCGAAAGUCACACAAACCGG [C82U A111G A120C A145G C150U C169A], the reverse-splicing fitness was 0.00939.

For the variant GUGCCUUGCGCCGGGAAACCACGCAAGGGAUGGUGUCAAAUUCGGCGAAACCUAAGCGCCCGCCCGGGCGUAUGGCAACGCUGAGCCAAGCUUCGGCGCCUGCGCCGAUGGAGGUGUAGCGACUAGACGGCACCCACCUAAGGCGAACGUUAUGGUGAAGGCAUAGUCCAGGGAGAGGCGAAAGUCACACAAACCGG [C82U A111G A120C A145G C150U U176A], the reverse-splicing fitness is 0.0138.

Consider GUGCCUUGCGCCGGGAAACCACGCAAGGGAUGGUGUCAAAUUCGGCGAAACCUAAGCGCCCGCCCGGGCGUAUGGCAACGCUGAGCCAAGCUUCGGCGCCUGCGCCGAUGGAGGUGUAGCGACUAGACGGCACCCACCUAAGGCGAACGUUAUGGUGAAGGCAUAGUCCAGGGAGGGGCGAAAGUCACACAAACCGG [C82U A111G A120C A145G C150U U176G], for which the reverse-splicing fitness stood at 0.00625.

As to GUGCCUUGCGCCGGGAAACCACGCAAGGGAUGGUGUCAAAUUCGGCGAAACCUAAGCGCCCGCCCGGGCGUAUGGCAACGCUGAGCCAAGCUUCGGCGCCUGCGCCGAUGGAGGUGUAGCGACUAGACGGCACCCACCUAAGGCGAACGUUAUGGUGAAGGCAUAGUCCAGGGAGCGGCGAAAGUCACACAAACCGG [C82U A111G A120C A145G C150U U176C], the reverse-splicing fitness was found to be 0.0274.

For the origin of these results see the RNAGym collection of RNA variant scans (doi:10.1093/molbev/msab373).
